One substance from PMC4732737 can be followed below.

The target of assay [1] is AviB-tagged BG505 SOSIP.664 A316W trimer (HIV-1). Nature of the assay: BLI. For orientation: In BLI a coated tip is dipped into the sample, and binding shifts an interference pattern.
In assay [2] the target is AviB-tagged BG505 SOSIP.v4.2 trimer (HIV-1). Nature of the assay: BLI.

Turning to soluble CD4 (domain or fragment), the fold reduction of affinity against the wild-type trimer in assay [1] and in assay [2] was 2.4 fold in each case.
